In patent US20230086530A1:

Experiments:
[1] = target: human CD47 on the cell membrane surface of CD47 positive tumor cells (Raji, NUGC-4, Jurkat) (human) (UniProt Q08722); experiment: FACS on Raji cells, 0.5 µg/mL
[2] = target: human CD47 on the cell membrane surface of CD47 positive tumor cells (Raji, NUGC-4, Jurkat) (human) (UniProt Q08722); experiment: FACS on Raji cells, 0.05 µg/mL

human CD47 on the cell membrane surface of CD47 positive tumor cells (Raji, NUGC-4, Jurkat) (human), sequence (Q08722 19-323): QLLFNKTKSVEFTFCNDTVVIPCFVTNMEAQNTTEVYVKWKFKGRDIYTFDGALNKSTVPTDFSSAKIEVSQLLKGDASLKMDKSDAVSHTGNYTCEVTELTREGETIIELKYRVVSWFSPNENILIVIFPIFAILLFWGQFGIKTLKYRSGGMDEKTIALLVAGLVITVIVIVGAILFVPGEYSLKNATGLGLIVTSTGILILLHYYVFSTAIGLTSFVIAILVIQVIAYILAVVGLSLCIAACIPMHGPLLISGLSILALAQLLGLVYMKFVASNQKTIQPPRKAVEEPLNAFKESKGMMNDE

Substance: isotype control antibody
- Mean fluorescence intensity (multiple) [1]: 1 fold
- Mean fluorescence intensity (multiple) [2]: 1 fold
